According to paper doi:10.1101/2024.08.25.607996:
pKd: −log10 of the molar value.

What was measured:
[1] = molecular target: FCoV-23 S domain B (receptor-binding domain), residues 529-677, avi- and His-tagged (FCoV-23 (feline coronavirus)); test: BLI
[2] = molecular target: feline APN ectodomain without the Fc fusion (dimer) (feline) (UniProt P79171); test: cryo-EM structure
Sequence of feline APN ectodomain without the Fc fusion (dimer) (feline) (P79171 64-967): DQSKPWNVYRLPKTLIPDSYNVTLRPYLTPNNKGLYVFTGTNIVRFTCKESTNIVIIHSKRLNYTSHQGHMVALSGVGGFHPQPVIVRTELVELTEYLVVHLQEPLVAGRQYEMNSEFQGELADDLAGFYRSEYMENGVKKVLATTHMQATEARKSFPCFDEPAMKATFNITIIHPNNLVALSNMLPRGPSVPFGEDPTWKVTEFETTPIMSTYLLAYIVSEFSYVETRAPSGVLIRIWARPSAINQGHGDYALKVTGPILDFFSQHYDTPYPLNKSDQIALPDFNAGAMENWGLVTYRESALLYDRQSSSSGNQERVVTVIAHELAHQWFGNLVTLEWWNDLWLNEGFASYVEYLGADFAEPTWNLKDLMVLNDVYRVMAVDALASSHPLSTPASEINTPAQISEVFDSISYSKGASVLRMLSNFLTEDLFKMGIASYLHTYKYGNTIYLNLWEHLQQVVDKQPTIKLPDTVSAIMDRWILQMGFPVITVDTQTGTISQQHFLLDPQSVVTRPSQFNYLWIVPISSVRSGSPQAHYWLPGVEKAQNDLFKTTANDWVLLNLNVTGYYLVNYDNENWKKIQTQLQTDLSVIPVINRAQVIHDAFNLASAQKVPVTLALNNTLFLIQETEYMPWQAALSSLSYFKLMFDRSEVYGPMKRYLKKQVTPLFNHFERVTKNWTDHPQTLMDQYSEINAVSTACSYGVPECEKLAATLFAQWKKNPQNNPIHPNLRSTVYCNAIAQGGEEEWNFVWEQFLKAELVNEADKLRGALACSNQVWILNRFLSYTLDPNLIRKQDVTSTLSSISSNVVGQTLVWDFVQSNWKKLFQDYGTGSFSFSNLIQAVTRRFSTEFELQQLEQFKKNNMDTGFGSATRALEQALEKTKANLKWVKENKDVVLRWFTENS

Sequence of canine APN-Fc ectodomain (dimeric) (P79143 71-975): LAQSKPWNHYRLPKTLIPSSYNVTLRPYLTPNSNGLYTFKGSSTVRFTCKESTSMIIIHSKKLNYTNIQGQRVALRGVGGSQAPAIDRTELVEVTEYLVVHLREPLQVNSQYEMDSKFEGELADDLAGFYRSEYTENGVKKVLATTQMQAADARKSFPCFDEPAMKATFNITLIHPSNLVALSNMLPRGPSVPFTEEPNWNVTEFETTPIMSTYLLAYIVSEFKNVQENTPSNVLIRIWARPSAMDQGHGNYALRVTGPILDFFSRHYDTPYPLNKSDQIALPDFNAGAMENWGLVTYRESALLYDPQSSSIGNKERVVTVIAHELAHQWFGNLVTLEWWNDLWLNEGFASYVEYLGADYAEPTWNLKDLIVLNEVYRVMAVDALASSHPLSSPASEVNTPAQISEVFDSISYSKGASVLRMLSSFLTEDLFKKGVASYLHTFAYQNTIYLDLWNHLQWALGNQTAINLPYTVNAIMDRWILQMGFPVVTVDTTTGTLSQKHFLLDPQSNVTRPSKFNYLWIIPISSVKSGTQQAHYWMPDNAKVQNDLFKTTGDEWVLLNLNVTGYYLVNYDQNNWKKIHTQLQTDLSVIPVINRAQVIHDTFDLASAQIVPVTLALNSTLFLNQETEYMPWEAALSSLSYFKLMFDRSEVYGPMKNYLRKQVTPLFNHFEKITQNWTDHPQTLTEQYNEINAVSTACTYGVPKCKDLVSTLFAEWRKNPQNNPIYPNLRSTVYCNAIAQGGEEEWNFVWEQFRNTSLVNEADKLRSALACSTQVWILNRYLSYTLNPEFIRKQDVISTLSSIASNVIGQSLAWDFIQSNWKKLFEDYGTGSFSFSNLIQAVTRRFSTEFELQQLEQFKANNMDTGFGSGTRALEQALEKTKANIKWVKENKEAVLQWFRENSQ
Sequence of feline APN-Fc ectodomain (dimeric) (P79171 64-967): as the sequence (P79171 64-967) above

| Substance | pKd [1] | stoichiometry N (RBD per APN protomer) [2] |
| --- | --- | --- |
| canine APN-Fc ectodomain (dimeric) (from UniProt P79143 71-975) (Fc fusion) | 8.89 |  |
| FCoV-23 S domain B (receptor-binding domain), residues 529-677, avi- and His-tagged (domain or fragment) |  | 1 |
| feline APN-Fc ectodomain (dimeric) (from UniProt P79171 64-967) (Fc fusion) | 7.96 |  |
